Reference: patent US20250161356A1 (UNIVERSITY OF MELBOURNE, published 2025)

B1: BTN2A1 ectodomain tetramer (streptavidin-PE) (ligand, human, UniProt Q7KYR7 29-248, looked up)
chain: QFIVVGPTDPILATVGENTTLRCHLSPEKNAEDMEVRWFRSQFSPAVFVYKGGRERTEEQMEEYRGRTTFVSKDISRGSVALVIHNITAQENGTYRCYFQEGRSYDEAILHLVVAGLGSKPLISMRGHEDGGIRLECISRGWYPKPLTVWRDPYGGVAPALKEVSMPDADGLFMVTTAVIIRDKSVRNMSCSINNTLLGQKKESVIFIPESFMPSVSPCA
notes: extracellular domain; biotinylated at a C-terminal AviTag; also called BTN2A1 tetramer
B2: soluble BTN3A1 ectodomain (IgV-IgC), homodimer (ligand)
chain: not shown
notes: extracellular domain; Soluble analyte or immobilised ligand in SPR; streptavidin-PE tetramer in staining; also called BTN3A1 ectodomain homodimer; BTN3A1 tetramer; not shown: C-terminal biotin ligase (AviTag) and His tags
B3: BTN2A1-BTN3A1-zipper ectodomain complex (wild type) (other)
chain 1: B1 chain
chain 2: not shown
notes: extracellular domain; Immobilised in SPR; streptavidin-PE tetramer in staining; also called BTN2A1-BTN3A1 complex; BTN2A1-BTN3A1 heteromer; not shown: acid zipper (AZ)-His6; basic zipper (BZ)-biotin ligase tag
B4: soluble BTN2A1 ectodomain lacking Cys247 (monomeric) (ligand, human, UniProt Q7KYR7 29-246, looked up)
chain: QFIVVGPTDPILATVGENTTLRCHLSPEKNAEDMEVRWFRSQFSPAVFVYKGGRERTEEQMEEYRGRTTFVSKDISRGSVALVIHNITAQENGTYRCYFQEGRSYDEAILHLVVAGLGSKPLISMRGHEDGGIRLECISRGWYPKPLTVWRDPYGGVAPALKEVSMPDADGLFMVTTAVIIRDKSVRNMSCSINNTLLGQKKESVIFIPESFMPSVSP
notes: extracellular domain; also called soluble monomeric BTN2A1 ectodomain; full-length BTN2A1 ectodomain; not shown: C-terminal biotin ligase (AviTag) and His tags
B5: BTN2A1 ectodomain homodimer (disulfide-linked, with C-terminal Cys247 and leucine zippers) (ligand, human, UniProt Q7KYR7 29-248, looked up)
chain: B1 chain
notes: extracellular domain; One copy carries the acidic, the other the basic zipper; also called immobilised BTN2A1 ectodomain homodimer; BTN2A1 homodimer; not shown: acidic or basic leucine zipper and C-terminal AviTag/His tags
B6: monomeric BTN3A1 IgV domain (ligand)
chain: not shown
notes: domain: IgV; not shown: C-terminal biotin ligase (AviTag) and His tags
B7: BTN3A1 Arg44-Ala on transfected NIH-3T3 cells (ligand)
chain: not shown
notes: whole, on cells; Position counts the mature protein
B8: BTN3A1 Glu106-Ala on transfected NIH-3T3 cells (ligand)
chain: not shown
notes: as for B7
B9: BTN3A1 Leu96-Ala on transfected NIH-3T3 cells (ligand)
chain: not shown
notes: as for B7
B10: BTN3A1 Tyr98-Ala on transfected NIH-3T3 cells (ligand)
chain: not shown
notes: as for B7
B11: BTN3A1 Tyr98-Phe on transfected NIH-3T3 cells (ligand)
chain: not shown
notes: as for B7
B12: BTN3A1 Tyr105-Ala on transfected NIH-3T3 cells (ligand)
chain: not shown
notes: as for B7

Assays:
[1] = molecular target: T1, 9C2 Vγ5Vδ1+ γδTCR on transfected HEK293T cells; experiment: flow cytometry, tetramer-PE versus CD3-APC on HEK293T cells co-transfected with CD3 and 9C2 TCR; SAv ctl 26
T1 construct: Control TCR, co-transfected with CD3; also called 9C2 TCR (Control)

[2] = molecular target: B2; experiment: SPR, soluble BTN2A1 ectodomain over immobilised BTN3A1 homodimer, equilibrium analysis, ± SEM
[3] = molecular target: B5; experiment: SPR, soluble BTN2A1 ectodomain over immobilised BTN2A1 ectodomain homodimer
[4] = molecular target: B2; experiment: SPR, soluble BTN2A1 ectodomain over immobilised BTN3A1 homodimer, equilibrium analysis
[5] = molecular target: B2; experiment: SPR, soluble BTN3A1 ectodomain over immobilised BTN2A1 homodimer, equilibrium analysis, ± SEM
[6] = molecular target: B5; experiment: SPR, soluble BTN3A1 IgV domain over immobilised BTN2A1 homodimer, equilibrium analysis, ± SEM
[7] = molecular target: B2; experiment: SPR, soluble BTN3A1 IgV domain over immobilised BTN3A1 homodimer
[8] = molecular target: T2, BTN2A1 on transfected cells (human, UniProt Q7KYR7 29-527); experiment: FRET between anti-BTN2A1 (259) and anti-BTN3A (103.2) mAbs on NIH-3T3 cells co-expressing BTN2A1 WT and the BTN3A1 mutant (association in cis)
T2 construct: Expressed from pMIG in NIH-3T3 or HEK293T cells; also called BTN2A1+ cells; BTN2A1 WT
T2 sequence: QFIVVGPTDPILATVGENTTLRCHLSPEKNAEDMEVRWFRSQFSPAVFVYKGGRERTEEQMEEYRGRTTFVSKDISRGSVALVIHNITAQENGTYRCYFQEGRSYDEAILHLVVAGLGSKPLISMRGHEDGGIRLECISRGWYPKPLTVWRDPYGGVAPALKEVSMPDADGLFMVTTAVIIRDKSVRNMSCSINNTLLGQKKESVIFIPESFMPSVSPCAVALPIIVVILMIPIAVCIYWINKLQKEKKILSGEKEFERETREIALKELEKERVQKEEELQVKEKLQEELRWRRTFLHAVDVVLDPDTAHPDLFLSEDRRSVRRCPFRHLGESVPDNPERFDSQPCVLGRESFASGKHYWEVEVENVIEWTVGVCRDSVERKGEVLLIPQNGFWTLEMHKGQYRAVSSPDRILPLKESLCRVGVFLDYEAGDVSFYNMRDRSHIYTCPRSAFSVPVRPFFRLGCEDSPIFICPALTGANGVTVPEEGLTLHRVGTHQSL

For B1, the “median fluorescence of PE” value [1] was 25.

For B2, the “median fluorescence of PE” value [1] was 28.

For B3, the “median fluorescence of PE” value [1] was 52.

With B4 the Kd [2] was 1800 µM, the binding result [3] was “no binding” and the Kd [4] was roughly 1800 µM.

Work on B5 yielded a Kd [5] of 500 µM.

With B6 the Kd [6] was 1100 µM and the binding result [7] was “no binding (tested: 1,590 µM)”.

B7: no binding [8].

B8: no binding [8].

B9: no binding [8].

B10: no binding [8].

B11: no binding [8].

B12: no binding [8].
